Columns and labels:
Experiment in all cases: ELISA
[1] = biological target: Fc-fused ECD of FGFR3 (IIIc) (Homo sapiens (assumed), UniProt P22607)
[2] = biological target: Fc-fused ECD of HER4 (Homo sapiens (assumed), UniProt Q15303)
[3] = biological target: Fc-fused ECD of HER3 (Homo sapiens (assumed), UniProt P21860)
[4] = biological target: Fc-fused ECD of EGFR (Homo sapiens (assumed), UniProt P00533)
[5] = biological target: Fc-fused ECD of IGF-IR (Homo sapiens (assumed), UniProt P08069)
[6] = biological target: Fc-fused ECD of PDGFRβ (Homo sapiens (assumed), UniProt P09619)
Fc-fused ECD of PDGFRβ, sequence (P09619 33-532): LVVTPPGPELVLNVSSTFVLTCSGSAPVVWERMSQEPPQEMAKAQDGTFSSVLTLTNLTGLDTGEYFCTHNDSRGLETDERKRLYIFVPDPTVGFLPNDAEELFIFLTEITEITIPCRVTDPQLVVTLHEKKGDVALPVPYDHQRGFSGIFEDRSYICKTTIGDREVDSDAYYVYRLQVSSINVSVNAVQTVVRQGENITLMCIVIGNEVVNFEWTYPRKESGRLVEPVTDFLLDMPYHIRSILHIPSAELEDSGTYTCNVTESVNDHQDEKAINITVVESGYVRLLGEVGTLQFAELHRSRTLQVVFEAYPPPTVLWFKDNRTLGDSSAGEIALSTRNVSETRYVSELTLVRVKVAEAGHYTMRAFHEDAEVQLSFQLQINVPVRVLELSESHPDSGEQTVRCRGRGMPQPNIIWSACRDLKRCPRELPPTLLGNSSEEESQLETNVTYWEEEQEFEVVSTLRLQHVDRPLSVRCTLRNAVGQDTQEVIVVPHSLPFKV

[7] = biological target: HGFR/c-Met ECD-Fc (Homo sapiens (assumed), UniProt P08581)
HGFR/c-Met ECD-Fc, sequence (P08581 25-932): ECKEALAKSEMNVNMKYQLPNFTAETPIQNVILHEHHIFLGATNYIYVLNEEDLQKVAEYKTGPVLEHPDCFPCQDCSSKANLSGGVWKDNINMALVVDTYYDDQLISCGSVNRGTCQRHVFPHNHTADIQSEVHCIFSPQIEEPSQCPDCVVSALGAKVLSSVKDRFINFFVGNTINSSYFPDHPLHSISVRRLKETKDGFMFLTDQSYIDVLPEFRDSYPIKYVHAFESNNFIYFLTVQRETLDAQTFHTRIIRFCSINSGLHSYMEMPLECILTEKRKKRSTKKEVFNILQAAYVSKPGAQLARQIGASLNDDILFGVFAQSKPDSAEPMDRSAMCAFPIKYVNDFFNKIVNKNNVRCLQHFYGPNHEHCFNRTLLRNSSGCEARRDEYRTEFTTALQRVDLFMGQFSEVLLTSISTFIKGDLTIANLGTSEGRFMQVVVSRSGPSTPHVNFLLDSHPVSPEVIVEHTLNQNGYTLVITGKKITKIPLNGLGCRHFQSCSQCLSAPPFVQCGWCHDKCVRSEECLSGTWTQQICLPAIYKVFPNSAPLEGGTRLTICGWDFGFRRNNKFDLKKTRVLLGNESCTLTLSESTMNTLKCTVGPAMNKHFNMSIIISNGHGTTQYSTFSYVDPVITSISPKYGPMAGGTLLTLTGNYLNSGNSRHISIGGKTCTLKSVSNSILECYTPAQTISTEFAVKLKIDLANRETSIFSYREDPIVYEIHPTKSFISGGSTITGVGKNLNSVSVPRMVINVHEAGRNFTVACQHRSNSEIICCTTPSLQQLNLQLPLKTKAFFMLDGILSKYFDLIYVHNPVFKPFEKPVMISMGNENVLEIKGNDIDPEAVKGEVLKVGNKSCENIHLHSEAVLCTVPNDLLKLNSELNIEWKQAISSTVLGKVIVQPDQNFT

[8] = biological target: Fc-fused ECD of VEGFR2 (Homo sapiens (assumed), UniProt P35968)
Fc-fused ECD of VEGFR2, sequence (P35968 20-764): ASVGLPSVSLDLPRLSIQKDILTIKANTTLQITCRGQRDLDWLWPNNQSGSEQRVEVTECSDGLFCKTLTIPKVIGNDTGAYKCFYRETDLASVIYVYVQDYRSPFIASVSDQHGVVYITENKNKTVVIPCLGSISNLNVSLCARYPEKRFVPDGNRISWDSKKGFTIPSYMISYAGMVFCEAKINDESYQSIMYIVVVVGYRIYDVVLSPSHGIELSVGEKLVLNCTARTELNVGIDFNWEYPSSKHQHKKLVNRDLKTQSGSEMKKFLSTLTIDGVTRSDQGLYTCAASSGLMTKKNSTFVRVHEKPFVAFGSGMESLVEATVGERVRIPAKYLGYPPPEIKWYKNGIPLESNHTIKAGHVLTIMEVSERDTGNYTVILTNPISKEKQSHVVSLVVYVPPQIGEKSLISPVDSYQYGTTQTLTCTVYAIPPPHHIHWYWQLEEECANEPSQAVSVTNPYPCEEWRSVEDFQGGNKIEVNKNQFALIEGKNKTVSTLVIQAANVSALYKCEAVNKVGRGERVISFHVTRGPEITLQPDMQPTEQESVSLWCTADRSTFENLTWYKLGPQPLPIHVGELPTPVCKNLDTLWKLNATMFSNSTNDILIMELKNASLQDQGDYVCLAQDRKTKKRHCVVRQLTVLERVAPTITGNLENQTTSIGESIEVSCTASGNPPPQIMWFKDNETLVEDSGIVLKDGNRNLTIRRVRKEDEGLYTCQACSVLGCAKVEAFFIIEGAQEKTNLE

Fc-fused ECD of HER3, sequence (P21860 20-643): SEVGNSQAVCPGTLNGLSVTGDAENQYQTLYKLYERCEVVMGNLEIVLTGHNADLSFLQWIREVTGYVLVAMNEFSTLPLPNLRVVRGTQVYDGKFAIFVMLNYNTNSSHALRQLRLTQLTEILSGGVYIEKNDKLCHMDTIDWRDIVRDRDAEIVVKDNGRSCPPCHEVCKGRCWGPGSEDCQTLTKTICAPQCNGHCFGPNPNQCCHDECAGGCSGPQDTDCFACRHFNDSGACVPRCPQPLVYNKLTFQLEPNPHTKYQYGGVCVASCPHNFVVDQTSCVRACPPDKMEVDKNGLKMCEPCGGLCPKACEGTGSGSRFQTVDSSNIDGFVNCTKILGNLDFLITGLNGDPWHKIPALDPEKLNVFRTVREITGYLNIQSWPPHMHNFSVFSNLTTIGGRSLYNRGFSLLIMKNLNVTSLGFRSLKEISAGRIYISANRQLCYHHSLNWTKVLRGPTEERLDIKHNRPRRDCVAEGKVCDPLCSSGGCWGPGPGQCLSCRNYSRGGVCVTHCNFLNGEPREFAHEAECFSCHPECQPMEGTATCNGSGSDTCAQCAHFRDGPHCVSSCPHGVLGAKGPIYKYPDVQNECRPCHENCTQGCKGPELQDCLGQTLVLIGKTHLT
Fc-fused ECD of IGF-IR, sequence (P08069 741-935): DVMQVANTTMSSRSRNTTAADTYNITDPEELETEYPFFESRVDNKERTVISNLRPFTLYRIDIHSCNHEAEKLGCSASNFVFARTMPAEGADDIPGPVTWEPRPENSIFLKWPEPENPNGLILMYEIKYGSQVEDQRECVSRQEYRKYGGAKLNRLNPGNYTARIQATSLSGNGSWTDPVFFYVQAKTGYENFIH
Fc-fused ECD of HER4, sequence (Q15303 26-651): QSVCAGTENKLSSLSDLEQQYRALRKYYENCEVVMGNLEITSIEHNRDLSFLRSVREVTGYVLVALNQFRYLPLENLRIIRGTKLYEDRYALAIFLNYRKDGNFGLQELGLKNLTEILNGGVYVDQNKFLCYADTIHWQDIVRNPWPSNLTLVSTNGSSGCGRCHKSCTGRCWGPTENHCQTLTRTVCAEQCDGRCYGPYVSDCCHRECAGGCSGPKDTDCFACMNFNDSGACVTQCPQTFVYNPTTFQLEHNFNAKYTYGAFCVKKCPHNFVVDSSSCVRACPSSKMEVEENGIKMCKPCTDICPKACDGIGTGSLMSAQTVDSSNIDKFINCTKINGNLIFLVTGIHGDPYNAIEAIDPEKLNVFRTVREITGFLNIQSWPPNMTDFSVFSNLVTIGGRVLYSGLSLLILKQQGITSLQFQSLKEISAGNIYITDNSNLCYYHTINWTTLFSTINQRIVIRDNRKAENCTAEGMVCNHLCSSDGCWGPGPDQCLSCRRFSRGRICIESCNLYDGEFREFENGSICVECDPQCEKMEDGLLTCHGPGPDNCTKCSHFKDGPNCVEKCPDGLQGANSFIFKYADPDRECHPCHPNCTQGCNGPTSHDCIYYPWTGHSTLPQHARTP
Fc-fused ECD of FGFR3 (IIIc), sequence (P22607 23-375): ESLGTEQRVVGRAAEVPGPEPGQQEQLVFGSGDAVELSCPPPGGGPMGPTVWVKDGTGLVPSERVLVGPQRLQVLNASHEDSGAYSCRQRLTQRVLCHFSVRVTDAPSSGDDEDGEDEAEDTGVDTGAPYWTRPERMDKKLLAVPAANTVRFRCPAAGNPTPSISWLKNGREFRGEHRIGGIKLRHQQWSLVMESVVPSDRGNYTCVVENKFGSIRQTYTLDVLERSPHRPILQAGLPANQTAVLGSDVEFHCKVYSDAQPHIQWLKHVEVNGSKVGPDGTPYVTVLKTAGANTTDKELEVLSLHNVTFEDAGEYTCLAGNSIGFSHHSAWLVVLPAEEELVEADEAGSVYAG

binding result [1]: no binding (tested: 30 nM)
binding result [2]: no binding (tested: 30 nM)
binding result [3]: no binding (tested: 30 nM)
binding result [4]: no binding (tested: 30 nM)
binding result [5]: no binding (tested: 30 nM)
binding result [6]: no binding (tested: 30 nM)
binding result [7]: no binding (tested: 30 nM)
binding result [8]: no binding (tested: 30 nM)
B1: AH06, variant of hu4D5 from library LN02, IgG format (antibody, V domains shown)
VH: EVQLVESGGGLVQPGGSLRLSCAASGFNIKDTYIHWVRQAPGKGLEWVARIYPTNGYTRYADSVKGRFTISADTSKNTAYLQMNSLRAEDTAVYYCSRWGGWGFYAFALWGQGTLVTVSS
VL: not shown
